Results: patent US20240269235A1 (Gilead, published 2024)

T1: trimeric murine IL-2 receptor (IL-2Rα, IL-2Rβ, and IL-2Rγ) on CTLL-2 cells (murine, UniProt P01590 22-268; P16297 27-539; P34902 23-369)
T1 sequence (looked up) 1: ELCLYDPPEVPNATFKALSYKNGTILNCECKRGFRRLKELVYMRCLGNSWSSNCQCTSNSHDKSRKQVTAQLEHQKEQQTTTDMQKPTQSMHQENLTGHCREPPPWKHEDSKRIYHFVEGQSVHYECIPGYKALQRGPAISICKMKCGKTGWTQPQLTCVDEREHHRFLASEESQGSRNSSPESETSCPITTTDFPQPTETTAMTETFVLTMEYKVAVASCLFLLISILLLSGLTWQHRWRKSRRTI
T1 sequence (looked up) 2: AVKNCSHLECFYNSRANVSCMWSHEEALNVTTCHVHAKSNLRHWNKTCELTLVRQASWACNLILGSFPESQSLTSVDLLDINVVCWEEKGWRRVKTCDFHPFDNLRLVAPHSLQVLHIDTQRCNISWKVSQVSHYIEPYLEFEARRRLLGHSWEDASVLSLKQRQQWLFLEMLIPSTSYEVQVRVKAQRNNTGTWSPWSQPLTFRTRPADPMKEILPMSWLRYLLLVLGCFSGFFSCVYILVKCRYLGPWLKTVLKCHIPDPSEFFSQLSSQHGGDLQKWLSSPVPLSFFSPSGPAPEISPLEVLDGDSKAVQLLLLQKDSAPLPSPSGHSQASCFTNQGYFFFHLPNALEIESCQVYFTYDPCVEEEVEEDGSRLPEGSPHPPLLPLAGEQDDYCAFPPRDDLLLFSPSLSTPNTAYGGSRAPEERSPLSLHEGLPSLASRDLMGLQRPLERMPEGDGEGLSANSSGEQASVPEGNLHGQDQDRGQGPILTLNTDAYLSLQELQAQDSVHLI
T1 sequence (looked up) 3: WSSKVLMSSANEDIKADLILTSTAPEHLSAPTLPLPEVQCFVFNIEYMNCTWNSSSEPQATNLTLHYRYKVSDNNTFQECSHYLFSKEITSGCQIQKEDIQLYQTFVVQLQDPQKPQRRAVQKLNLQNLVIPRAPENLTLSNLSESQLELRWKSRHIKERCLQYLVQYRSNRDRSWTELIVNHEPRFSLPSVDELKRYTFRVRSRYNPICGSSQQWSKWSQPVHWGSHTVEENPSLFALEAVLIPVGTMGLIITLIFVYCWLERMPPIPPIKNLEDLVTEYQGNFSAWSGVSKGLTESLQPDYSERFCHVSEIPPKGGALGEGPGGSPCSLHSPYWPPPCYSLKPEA

T2: IL-2Rβ and IL-2Rγ on Ba/F3 cells engineered to express murine IL-2Rβ (murine, UniProt P16297 27-539; P34902 23-369)
T2 sequence (looked up) 1: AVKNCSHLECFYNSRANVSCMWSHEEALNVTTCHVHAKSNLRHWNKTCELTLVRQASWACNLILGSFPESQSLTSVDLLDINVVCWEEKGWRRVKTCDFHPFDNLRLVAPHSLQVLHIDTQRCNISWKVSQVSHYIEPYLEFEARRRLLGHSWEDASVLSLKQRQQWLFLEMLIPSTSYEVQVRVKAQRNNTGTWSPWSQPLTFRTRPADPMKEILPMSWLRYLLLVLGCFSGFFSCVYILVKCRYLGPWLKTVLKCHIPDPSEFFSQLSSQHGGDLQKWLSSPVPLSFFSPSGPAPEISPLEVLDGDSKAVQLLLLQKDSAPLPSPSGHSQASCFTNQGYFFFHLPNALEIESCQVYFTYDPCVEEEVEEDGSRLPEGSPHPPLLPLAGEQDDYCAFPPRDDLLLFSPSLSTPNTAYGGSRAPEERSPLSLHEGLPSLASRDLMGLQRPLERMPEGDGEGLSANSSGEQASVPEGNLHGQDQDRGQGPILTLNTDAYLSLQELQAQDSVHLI
T2 sequence (looked up) 2: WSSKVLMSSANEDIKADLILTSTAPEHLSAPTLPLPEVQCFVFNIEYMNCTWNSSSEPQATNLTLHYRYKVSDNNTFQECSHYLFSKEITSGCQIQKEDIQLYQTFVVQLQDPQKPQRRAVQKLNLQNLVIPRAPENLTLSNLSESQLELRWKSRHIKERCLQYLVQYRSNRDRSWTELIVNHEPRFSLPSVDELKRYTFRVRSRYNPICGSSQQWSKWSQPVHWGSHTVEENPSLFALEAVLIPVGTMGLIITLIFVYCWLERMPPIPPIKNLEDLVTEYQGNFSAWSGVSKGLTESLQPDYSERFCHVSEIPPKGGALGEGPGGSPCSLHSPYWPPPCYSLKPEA


How the values were obtained:
[1] = biological target: T1, trimeric murine IL-2 receptor (IL-2Rα, …); test: cell-based or functional assay
[2] = biological target: T2, IL-2Rβ and IL-2Rγ on Ba/F3 cells …; test: cell-based or functional assay

Binder | pSTAT5 EC50, STAT5 activation of CTLL-2 cells [1] | Proliferation EC50, Ba/F3 cells [2] [nM]
mouse surrogate Fc-IL-2 heterodimer 165.250 (IL2v_C140A), native IL-2Rα binding interface (Fc fusion) chain 1: GPTIKPCPPCKCPAPNAAGGPSVFIFPPKIKDVLMISLSPIVTCVVVDVSEDDPDVQISWFVNNVEVHTAQTQTHREDYNSTLRVVSALPIQHQDWMSGKEFKCKVNNKDLGAPIERTISKPKGSVRAPQVYVLPPPEEEMTKKQVTLWCMVTDFMPEDIYVEWTNNGKTELNYKNTEPVLDSDGSYFMYSKLRVEKKNWVERNSYSCSVVHEGLHNHHTTKSFSRTPGGGGGSGGGGSGGGGSGGGGSQQQHLEQLLMDLQELLSRMENYRNLKLPRMLTFKFYLPKQATELKDLQCLEDELGPLRHVLDLTQSKSFQLEDAENFISNIRVTVVKLKGSDNTFECQFDDESATVVDFLRRWIAFAQSIISTSPQ chain 2: GPTIKPCPPCKCPAPNAAGGPSVFIFPPKIKDVLMISLSPIVTCVVVDVSEDDPDVQISWFVNNVEVHTAQTQTHREDYNSTLRVVSALPIQHQDWMSGKEFKCKVNNKDLGAPIERTISKPKGSVRAPQVYVLPPPEEEMTKKQVTLSCAVTDFMPEDIYVEWTNNGKTELNYKNTEPVLDSDGSYFMVSKLRVEKKNWVERNSYSCSVVHEGLHNHHTTKSFSRTPGK | 2 pM | 4.1
mouse surrogate Fc-IL-2v heterodimer 166.250 (IL2v_F56A_Y59A_L86G_C140A) (Fc fusion) chain 1: GPTIKPCPPCKCPAPNAAGGPSVFIFPPKIKDVLMISLSPIVTCVVVDVSEDDPDVQISWFVNNVEVHTAQTQTHREDYNSTLRVVSALPIQHQDWMSGKEFKCKVNNKDLGAPIERTISKPKGSVRAPQVYVLPPPEEEMTKKQVTLWCMVTDFMPEDIYVEWTNNGKTELNYKNTEPVLDSDGSYFMYSKLRVEKKNWVERNSYSCSVVHEGLHNHHTTKSFSRTPGGGGGSGGGGSGGGGSGGGGSQQQHLEQLLMDLQELLSRMENYRNLKLPRMLTAKFALPKQATELKDLQCLEDELGPLRHVLDGTQSKSFQLEDAENFISNIRVTVVKLKGSDNTFECQFDDESATVVDFLRRWIAFAQSIISTSPQ chain 2: GPTIKPCPPCKCPAPNAAGGPSVFIFPPKIKDVLMISLSPIVTCVVVDVSEDDPDVQISWFVNNVEVHTAQTQTHREDYNSTLRVVSALPIQHQDWMSGKEFKCKVNNKDLGAPIERTISKPKGSVRAPQVYVLPPPEEEMTKKQVTLSCAVTDFMPEDIYVEWTNNGKTELNYKNTEPVLDSDGSYFMVSKLRVEKKNWVERNSYSCSVVHEGLHNHHTTKSFSRTPGK | 5.4 nM | 9.5
mouse surrogate Fc-IL-2v heterodimer 167.250 (IL2v_F56A_C140A) (Fc fusion) chain 1: GPTIKPCPPCKCPAPNAAGGPSVFIFPPKIKDVLMISLSPIVTCVVVDVSEDDPDVQISWFVNNVEVHTAQTQTHREDYNSTLRVVSALPIQHQDWMSGKEFKCKVNNKDLGAPIERTISKPKGSVRAPQVYVLPPPEEEMTKKQVTLWCMVTDFMPEDIYVEWTNNGKTELNYKNTEPVLDSDGSYFMYSKLRVEKKNWVERNSYSCSVVHEGLHNHHTTKSFSRTPGGGGGSGGGGSGGGGSGGGGSQQQHLEQLLMDLQELLSRMENYRNLKLPRMLTAKFYLPKQATELKDLQCLEDELGPLRHVLDLTQSKSFQLEDAENFISNIRVTVVKLKGSDNTFECQFDDESATVVDFLRRWIAFAQSIISTSPQ chain 2: GPTIKPCPPCKCPAPNAAGGPSVFIFPPKIKDVLMISLSPIVTCVVVDVSEDDPDVQISWFVNNVEVHTAQTQTHREDYNSTLRVVSALPIQHQDWMSGKEFKCKVNNKDLGAPIERTISKPKGSVRAPQVYVLPPPEEEMTKKQVTLSCAVTDFMPEDIYVEWTNNGKTELNYKNTEPVLDSDGSYFMVSKLRVEKKNWVERNSYSCSVVHEGLHNHHTTKSFSRTPGK | 0.12 nM | 5.2
mouse surrogate Fc-IL-2v heterodimer 168.250 (IL2v_F56A_E76A_C140A) (Fc fusion) chain 1: GPTIKPCPPCKCPAPNAAGGPSVFIFPPKIKDVLMISLSPIVTCVVVDVSEDDPDVQISWFVNNVEVHTAQTQTHREDYNSTLRVVSALPIQHQDWMSGKEFKCKVNNKDLGAPIERTISKPKGSVRAPQVYVLPPPEEEMTKKQVTLWCMVTDFMPEDIYVEWTNNGKTELNYKNTEPVLDSDGSYFMYSKLRVEKKNWVERNSYSCSVVHEGLHNHHTTKSFSRTPGGGGGSGGGGSGGGGSGGGGSQQQHLEQLLMDLQELLSRMENYRNLKLPRMLTAKFYLPKQATELKDLQCLEDALGPLRHVLDLTQSKSFQLEDAENFISNIRVTVVKLKGSDNTFECQFDDESATVVDFLRRWIAFAQSIISTSPQ chain 2: GPTIKPCPPCKCPAPNAAGGPSVFIFPPKIKDVLMISLSPIVTCVVVDVSEDDPDVQISWFVNNVEVHTAQTQTHREDYNSTLRVVSALPIQHQDWMSGKEFKCKVNNKDLGAPIERTISKPKGSVRAPQVYVLPPPEEEMTKKQVTLSCAVTDFMPEDIYVEWTNNGKTELNYKNTEPVLDSDGSYFMVSKLRVEKKNWVERNSYSCSVVHEGLHNHHTTKSFSRTPGK | 63.1 nM | 20.6
mouse surrogate Fc-IL-2v heterodimer 171.250 (IL2v_R52G_F56A_E76A_C140A) (Fc fusion) chain 1: GPTIKPCPPCKCPAPNAAGGPSVFIFPPKIKDVLMISLSPIVTCVVVDVSEDDPDVQISWFVNNVEVHTAQTQTHREDYNSTLRVVSALPIQHQDWMSGKEFKCKVNNKDLGAPIERTISKPKGSVRAPQVYVLPPPEEEMTKKQVTLWCMVTDFMPEDIYVEWTNNGKTELNYKNTEPVLDSDGSYFMYSKLRVEKKNWVERNSYSCSVVHEGLHNHHTTKSFSRTPGGGGGSGGGGSGGGGSGGGGSQQQHLEQLLMDLQELLSRMENYRNLKLPGMLTAKFYLPKQATELKDLQCLEDALGPLRHVLDLTQSKSFQLEDAENFISNIRVTVVKLKGSDNTFECQFDDESATVVDFLRRWIAFAQSIISTSPQ chain 2: GPTIKPCPPCKCPAPNAAGGPSVFIFPPKIKDVLMISLSPIVTCVVVDVSEDDPDVQISWFVNNVEVHTAQTQTHREDYNSTLRVVSALPIQHQDWMSGKEFKCKVNNKDLGAPIERTISKPKGSVRAPQVYVLPPPEEEMTKKQVTLSCAVTDFMPEDIYVEWTNNGKTELNYKNTEPVLDSDGSYFMVSKLRVEKKNWVERNSYSCSVVHEGLHNHHTTKSFSRTPGK | 88.7 nM | 13
